Laboratory results taken from the Human Domainome abundance scans (Beltran et al. 2025).

B1: RanBP-type and C3HC4-type zinc finger-containing protein 1, residues 369 to 411; numbered along this chain, Q9BYM8 (parent)
chain: YHCKTPDCKGWCFFEDDVNEFTCPVCFHVNCLLCKAIHEQMNC

Variants of: B1
Test: abundance fitness (aPCA) (normalised: wild type 0, dead -1); higher = more abundant; growth selection in yeast, the domain comes from the species named
Conditions: Homo sapiens

Abundance fitness of substitutions, site by site:
I37: K -0.208, S -0.183, Y -0.464, R -0.145, A -0.152, H -0.218, F -0.412, W -0.39, P -0.133, L -0.219, N -0.269, M -0.214, Q -0.077, D -0.107, C -0.222, E -0.181
E20: R -0.255, T -0.119, S -0.222, K -0.202, V -0.391, G -0.457, F -0.122, C -0.303, A -0.311, N -0.276, L -0.163, D -0.347, P -0.83, I -0.465, Q -0.206, H -0.332, M -0.1
H38: A -0.689, E -0.46, K -0.707, C -0.774, D -0.482, L -1.14, F -0.59, I -0.881, G -0.536
C26: I -0.783, N -0.708, Y -0.77, M -1.05, D -0.567, T -0.921, P -1, A -0.713, L -0.792, G -0.757, S -0.804, W -1.07, V -1.03, H -0.537, K -0.834, R -0.754
N30: R -0.8, A -1.3, C -0.777, I -0.835, M -1.16, W -0.855, T -0.57, H -0.42, E -0.891, G -0.811, Y -0.614, L -1.22, S -0.797, P -0.784, D -0.79, Q -0.788, K -0.781, V -1.04
V18: I 0.099, T -0.01, R 0.069, P 0.048, G -0.276, M -0.14, H -0.277, K -0.001, N -0.267, S -0.055, Q 0.06, W -0.458, F -0.272
F27: H 0.155, K 0.108, W -0.147, P -0.62, E -0.184, G 0.115, L -0.02, M -0.159, T -0.068, V -0.536, Q 0.059, D -0.004, I -0.571, R 0.005, S -0.11
L33: W -0.262, P 0.084, S -0.065, M 0.033, K 0.138, C -0.213, Y -0.088, N -0.116, V -0.072, H -0.062, T -0.026, F -0.313, D -0.148, E -0.073, I -0.158
K35: G 0.067, R -0.021, I -0.843, E -0.026, M -0.026, V -0.406, P -0.356, A -0.147, W -0.385, H -0.023, L -0.321, Q -0.026, F -0.149, S -0.014, C -0.069, Y -0.273, D -0.156, T -0.281
N19: H -0.264, C -0.118, V 0.028, R 0.014, D -0.052, S 0.024, A -0.023, K 0.09, W -0.152, T 0.09, P -0.276, Q 0.052, E 0.042, L -0.081, G -0.194, M -0.078, F -0.395, Y -0.172
V25: D -0.142, W -0.406, A -0.136, M -0.298, L -0.113, P -0.76, Y -0.221, S -0.225, H -0.093, R -0.242, Q -0.17, T -0.36, I -0.057, G -0.49, E -0.138, C -0.181, K -0.112
L32: F -0.407, R 0.026, T -0.015, Y -0.302, K 0.037, E -0.366, D -0.531, Q -0.168, A -0.231, C -0.27, N -0.131, S -0.295, M -0.264, W -0.417, P -0.525, V -0.167, G -0.369
A36: I -0.331, R -0.015, N -0.111, D -0.053, E 0.058, G 0.051, M -0.266, F -0.848, S 0.01, W -0.87, T 0.005, P -0.333, K -0.084, V -0.28, Y -0.83, C -0.154, L -0.534
C34: T -0.547, G -0.467, K -0.623, F -0.654, W -1.02, N -0.536, P -0.174, R -0.683, S -0.488, M -0.881, E -0.312, H -0.501, A -0.733, Q -0.494, Y -0.875
H28: D -0.661, V -0.298, W -0.592, T -0.041, G -0.103, Q 0.059, I -0.224, M -0.065, K 0.131, E 0.005, R 0.011, C -0.205, A 0.081, Y -0.489, S -0.029, P -0.912
V29: A -0.368, G -0.562, P -0.624, I -0.453, E -0.34, L -0.215, Q -0.311, W -0.319, C -0.265, S -0.257, F -0.54, R -0.105, K -0.109, D -0.414, T -0.108
C23: E -0.82, Q -0.621, T -0.761, H -0.786, K -0.529, Y -0.677, L -0.89, R -0.771, M -0.895, S -0.904, A -0.794, V -0.911, W -0.741, G -0.891
F21: M -0.188, H -0.665, P -0.688, G -0.291, R -0.359, E -0.501, N -0.321, D -0.211, T 0.03, Y -0.06, Q -0.205, V 0.06, I -0.039, W 0.083, L -0.45, S 0.07, K -0.285, A 0.083, C -0.186
P24: I -1.09, T -0.324, N -0.233, K -0.287, D -0.36, E -0.277, R -0.39, L -0.681, A -0.558, H -0.676, V -0.774, G -0.389, C -0.658, Q -0.099
C31: L -1.02, H -0.469, A -0.805, V -0.76, D -0.54, G -0.655, E -0.611, Q -0.521, W -0.738, T -0.451, K -0.758, Y -0.154, M -0.725, R -0.558, F -0.648, N -0.532, S -0.438
T22: W -0.422, V -0.254, H -0.032, E -0.166, P -0.413, K -0.102, M -0.29, D -0.343, G -0.658, S -0.267, N -0.32, A -0.296, C -0.149, F -0.261, I -0.243, R -0.126, L -0.146, Q -0.118
